Results taken from patent publication US20210171601A1 (Memorial Sloan Kettering, published 2021).
Where no end group is shown, it is not given here.

B1: RR12EE345L leucine zipper with a linked affinity tag (peptide, not shown: small tags and cut ends)
chain: LEIRAAFLRQRNTALRTEVAELEQEVQRLENEVSQYETRYGPLGGGK
modifications: not fully specified (N-terminus)
notes: Secreted tagged zipper of the two-vector sorting system
B2: IL-3 zipperkine (IL-3 cytokine with C-terminal FLAG-tag and RR12EE345L leucine zipper) (ligand)
chain: ASISGRDTHRLTRTLNCSSIVKEIIGKLPEPELKTDDEGPSLRNKSFRRVNLSKFVESQGEVDPEDRYVIKSNLQKLNCCLPTSANDSALPGVFIRDLDDFRKKLRFYMVHLNDLETVLTSRPPQPASGSVSPNRGTVECGSGDYKDDDDKLEIRAAFLRQRNTALRTEVAELEQEVQRLENEVSQYETRYGPLGGGK

Key:
[1] = target: T1, membrane-bound leucine zipper (EE12RR345L); test: both co-transduced into the same cell; affinity tag detected on the cell surface by flow cytometry
T1 construct: Expressed on the surface of the transduced cell; not shown: spacer, transmembrane and any intracellular part of the construct of this experiment are not specified

[2] = target: T2, leucine zipper-based CAR (ZipR-CAR), e.g. EE12RR345L:CD28zeta; test: co-expression in T cells (FIG. 8)
T2 construct: Used where the text speaks of 'the ZipR-CAR' without naming the spacer; Expressed on T cells; also called leucine zipper receptor-based CAR; EE-CAR

Binder	binding result [1]	binding result [2]
B1	binds	–
B2	–	binds
